The record followed here is paper PMC8115288 (2021).

By Kd is commonly meant the equilibrium constant for the complex coming apart. A low value points to higher affinity.

Assay [1] has as its target T1, GST-CTD (C-terminal domain of HIV-1 integrase, aa 201-288) (HIV-1 (Hx3B), UniProt P04585 1348-1435).
T1 chain: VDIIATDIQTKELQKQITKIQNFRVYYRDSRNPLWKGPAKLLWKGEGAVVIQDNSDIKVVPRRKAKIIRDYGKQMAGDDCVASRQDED
The experiment in a line: GST-CTD 0.027 uM.

In assay [2] the target is T1, GST-CTD (C-terminal domain of HIV-1 …). The experiment in a line: GST-CTD 0.083 uM.

B1: His6-SUMO-INI1_(183-304) (domain or fragment)
chain: PEVLVPIRLDMEIDGQKLRDAFTWNMNEKLMTPEMFSEILCDDLDLNPLTFVPAIASAIRQQIESYPTDSILEDQSDQRVIIKLNIHVGNISLVDQFEWDMSEKENSPEKFALKLCSELGLG
Take B1: the values for the Kd in assay [1] and in assay [2] were 3.5 nM and 3 nM, respectively.
